For the data set, the system named is CcNsdD2-C (C-terminal DNA-binding domain of CcNsdD2) (Coprinopsis cinerea AmutBmut (pab1-1)), ORF:b1e54c23. The data set is described as follows: EMSA. As to conditions: EMSA: 30 uL, 1x EMSA binding buffer (composition not given), 1.5 ug salmon sperm DNA, 50 ng probe, 4 ug CcNsdD2-C, 37 C 30 min; 5% PAGE in 1x TBE pH 8.3. For orientation: In EMSA bound probe runs differently from free probe, usually more slowly.

Drawing on publication PMC8805025, this text covers binding for five sequences.

Chain of CcNsdD2-C (C-terminal DNA-binding domain of CcNsdD2) (Coprinopsis cinerea AmutBmut (pab1-1)), ORF:b1e54c23 (chain, as listed by the source): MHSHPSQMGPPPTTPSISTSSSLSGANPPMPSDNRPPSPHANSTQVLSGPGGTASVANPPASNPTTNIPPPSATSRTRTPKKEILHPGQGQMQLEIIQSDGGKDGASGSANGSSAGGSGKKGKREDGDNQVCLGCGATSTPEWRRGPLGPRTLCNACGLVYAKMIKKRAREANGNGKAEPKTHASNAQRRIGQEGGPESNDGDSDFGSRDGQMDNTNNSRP

Consider “AGCACGTGGTCGAAAGCCGTGGTTGGGCAGATGTGGTGGGTGAAGATCGGCAAAAATAACAGGACGCGATCTATGAAAAGTCACGGATTCGCGAAGGGGGCAAATAGATCGCGTAGGAGCAAAAGGCGTGTGCATCGCGCGCTTTGGTTACTTTCGACCACGTGCT (double strand) [cfs1 promoter probe]”, for which the binding result was “binds”. The value for “AGCACGTGGTCGAAAGCGTACTGTGGAGCAGGGAGAACGTTTGAAGATACCGAAGAAGCATCGGCTAGACCAAATCAAGCAGATCGGTGTACAGATATAGAATGTTTAGCTTGTTATTCGGTTCCAAGGAATACAGTCACAGCTCAGGAGCTTTCGACCACGTGCT (double strand) [hyd1 promoter probe]” was “binds”; that for “AGCACGTGGTCGAAAGGAAGTTGCTGTATACTCGATGACACTCAAGAGTGAGAGGGTTTCGGCCCGTGAGAGTTTCAAGCGGAGATCAAAAGCGATACAGTGATTAGATTAAAACAACGAGTAGATAAGATGGAGATCTTTCGACCACGTGCT (double strand) [cfs2 promoter probe]” was “binds”.

Consider “AGCACGTGGTCGAAAGTCAGACGAAATCGCCGATTCGCCGAACTCAAGGCCAAATGCATTTTAAACTCCGATCTCGGTGGGTCGCTCACCGATAGATCTCAAAACGATTTCGTTTCTGTGACGAGCATGGCTTCGACGCATTATCCAACGGCTCCTTTCGACCACGTGCT (double strand) [nsdD1 promoter probe]”, for which the binding result is recorded as “binds”. The value for “AGCACGTGGTCGAAAGTTCGCAATTTCATTGCATCCCTGAGCCACCTGACCACCGGAGATCGCTGAATATTGCTTGGGCCAGATATGACCAGAGTTAGCTTGATAGATCGGCATCCCCAATGACGGAGATGAAGTCGGAAGAGCCGAATCCTTTCGACCACGTGCT (double strand) [cgl1 promoter probe]” was “binds”.
